As usually defined, the Kd is the equilibrium constant for the complex coming apart. Low values mean a tighter complex, high ones a looser complex.

This test concerns the target BSA-Man (glycoprotein bearing 12 glycosylated sites) (bovine (from the name BSA)), P02769. Description: SPR. Conditions: remark: other sources report otherwise.

BSA-Man (glycoprotein bearing 12 glycosylated sites) (bovine (from the name BSA)), P02769, sequence (P02769 25-607): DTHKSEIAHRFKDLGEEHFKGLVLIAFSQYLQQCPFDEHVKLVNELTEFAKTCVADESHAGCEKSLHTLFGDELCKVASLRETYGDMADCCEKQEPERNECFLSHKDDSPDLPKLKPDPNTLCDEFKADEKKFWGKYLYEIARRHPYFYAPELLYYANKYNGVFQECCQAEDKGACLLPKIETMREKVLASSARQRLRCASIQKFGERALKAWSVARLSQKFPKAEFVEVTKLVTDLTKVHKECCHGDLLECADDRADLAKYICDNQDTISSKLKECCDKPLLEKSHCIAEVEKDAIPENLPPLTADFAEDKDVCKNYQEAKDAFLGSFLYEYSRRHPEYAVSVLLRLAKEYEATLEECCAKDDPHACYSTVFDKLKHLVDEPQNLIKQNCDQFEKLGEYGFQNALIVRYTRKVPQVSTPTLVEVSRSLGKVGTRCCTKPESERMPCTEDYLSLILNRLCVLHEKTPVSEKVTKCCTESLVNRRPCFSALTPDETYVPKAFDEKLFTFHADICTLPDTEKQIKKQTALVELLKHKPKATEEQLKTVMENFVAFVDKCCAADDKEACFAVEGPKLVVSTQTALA

B1: DC-SIGN ECD (construct without StreptagII), Q9NNX6 59-404 (domain or fragment)
chain: QVSKVPSSISQEQSRQDAIYQNLTQLKAAVGELSEKSKLQEIYQELTQLKAAVGELPEKSKLQEIYQELTRLKAAVGELPEKSKLQEIYQELTWLKAAVGELPEKSKMQEIYQELTRLKAAVGELPEKSKQQEIYQELTRLKAAVGELPEKSKQQEIYQELTRLKAAVGELPEKSKQQEIYQELTQLKAAVERLCHPCPWEWTFFQGNCYFMSNSQRNWHDSITACKEVGAQLVVIKSAEEQNFLQLQSSRSNRFTWMGLSDLNQEGTWQWVDGSPLLPSFKQYWNRGEPNNVGEEDCAEFSGNGWNDDKCNLAKFWICKKSAASCSRDEEQFLSPAPATPNPPPA
modifications: here or on the partner: 12 glycosylated sites (mannose glycans, up to 12 glycans displayed)
Molecule B1 had a Kd of 3.74 µM.

The values are drawn from doi:10.1101/780452.
